Data: PMC5626996

Target: NADH-dependent [FeFe]-hydrogenase Hyd1ABC (purified recombinant heterotrimer) (Syntrophomonas wolfei)

hydrogenase activity, Fdred → H2 (hydrogen production from reduced ferredoxin without NADH), 37°C, pH 7.5: < 0.01 U · mg^−1 | hydrogenase activity, H2 → Fdox (reduction of oxidized ferredoxin with hydrogen as the electron donor), 37°C, pH 7.5: < 0.01 U · mg^−1
B1: Clostridial ferredoxin (Clostridium pasteurianum) (natural protein)
chain: MAYKIADSCVSCGACASECPVNAISQGDSIFVIDADTCIDCGNCANVCPVGAPVQE
